Data on one molecule can be found in paper PMC12153344, “Deciphering the role of accessory proteins in Arabidopsis chloroplast editosomes via interaction with a synthetic PPR-PLS factor in E. coli”.

For one series, the target named is T1, MBP-ORRM1 (Arabidopsis, UniProt Q8L440 55-374).
T1 sequence: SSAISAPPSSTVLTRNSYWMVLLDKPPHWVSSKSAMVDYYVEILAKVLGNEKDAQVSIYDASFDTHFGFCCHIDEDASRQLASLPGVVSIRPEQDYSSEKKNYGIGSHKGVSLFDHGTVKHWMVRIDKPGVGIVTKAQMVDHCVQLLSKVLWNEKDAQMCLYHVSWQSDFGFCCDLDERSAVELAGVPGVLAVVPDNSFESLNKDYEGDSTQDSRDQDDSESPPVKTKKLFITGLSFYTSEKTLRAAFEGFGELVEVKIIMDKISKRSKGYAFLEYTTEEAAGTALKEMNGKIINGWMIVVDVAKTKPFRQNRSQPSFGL
Description: EMSA; MBP-ORRM1; no shift after many purification attempts; REMSA following Royan et al. (2021), binding buffer, pH and temperature not given in the material; proteins stored in 25 mM Tris-HCl pH 7.2, 250 mM NaCl, 20% glycerol, 0.5 mM EDTA, 1 mM DTT. The conditions noted are these: protein: recombinant; tags: N-terminal MBP; label: 5'-Cy5; single strand. For orientation: Mobility shift assays separate free from complexed probe on a gel.

A further series has as its target T2, dsn3PLS-DYW (synthetic construct (design of Royan et …, UniProt UPI0040747504 1-612)).
T2 chain: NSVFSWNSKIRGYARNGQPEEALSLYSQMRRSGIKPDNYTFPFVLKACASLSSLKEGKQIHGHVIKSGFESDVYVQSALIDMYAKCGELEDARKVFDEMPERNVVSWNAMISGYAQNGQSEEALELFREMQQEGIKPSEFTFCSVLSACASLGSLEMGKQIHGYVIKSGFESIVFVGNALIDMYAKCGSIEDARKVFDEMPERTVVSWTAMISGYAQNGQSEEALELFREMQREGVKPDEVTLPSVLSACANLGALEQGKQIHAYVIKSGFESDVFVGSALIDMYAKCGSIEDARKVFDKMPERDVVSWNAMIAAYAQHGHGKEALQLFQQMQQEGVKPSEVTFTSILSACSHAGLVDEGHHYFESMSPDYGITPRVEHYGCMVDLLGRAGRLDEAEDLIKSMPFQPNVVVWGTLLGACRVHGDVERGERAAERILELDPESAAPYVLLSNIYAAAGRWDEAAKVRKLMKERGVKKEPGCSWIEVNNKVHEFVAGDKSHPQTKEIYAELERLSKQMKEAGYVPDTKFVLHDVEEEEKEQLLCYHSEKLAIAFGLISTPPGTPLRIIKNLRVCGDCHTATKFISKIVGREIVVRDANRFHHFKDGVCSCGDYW
Description: EMSA; dsn3PLS-DYW alone; Kd estimated, value only in figure; REMSA following Royan et al. (2021), binding buffer, pH and temperature not given in the material; proteins stored in 25 mM Tris-HCl pH 7.2, 250 mM NaCl, 20% glycerol, 0.5 mM EDTA, 1 mM DTT. The conditions noted are these: protein: recombinant; tags: N-terminal thioredoxin (109 aa)-6xHis, 133 aa tag in total (pETM20); label: 5'-Cy5; single strand.

B1: rpoA_REMSA (ssRNA)
RNA: AUGUAUUACACGUGCAAAAUCUGAGA
B1: the binding result with MBP-ORRM1 is listed as “no binding”; with dsn3PLS-DYW, “binds”.
